{
  "source": "patent US20210221899A1",
  "about": "(published 2021)",
  "binders": {"B1": {"name": "can9L12VH_L107A (antibody, V domains shown)", "VH": "EVQLVESGGDLVKPGGSLRLSCVASGFTFSSHGMHWVRQSPGKGLQWVAVINSGGSSTYYTDAVKGRFTISRDNAKNTVYLQMNSLRAEDTAMYYCAKESVGGWEQAVGPHFDYWGQGTLVIVSS", "VL": "QSVLTQPTSVSGSLGQRVTISCSGSTNNIGILGASWYQLFPGKAPKLLVYGNGNRPSGVPDRFSGADSGDSVTLTITGLQAEDEADYYCQSFDTTLGAHVFGGGTHLTVL"}, "B2": {"name": "can9L12VH_S30A (antibody, V domains shown)", "VH": "B1 VH with S30A, A107L", "VL": "B1 VL"}, "B3": {"name": "can9L12VH_S100A (antibody, V domains shown)", "VH": "B1 VH with S100A, A107L", "VL": "B1 VL"}, "B4": {"name": "can9L12VH_T58A (antibody, V domains shown)", "VH": "B1 VH with T58A, A107L", "VL": "B1 VL"}, "B5": {"name": "can9L12VH_S56A (antibody, V domains shown)", "VH": "B1 VH with S56A, A107L", "VL": "B1 VL"}, "B6": {"name": "can9L12VL_F92A (antibody, V domains shown)", "VH": "B1 VH with A107L", "VL": "B1 VL with F92A"}, "B7": {"name": "can9L12VL_G53A (antibody, V domains shown)", "VH": "B1 VH with A107L", "VL": "B1 VL with G53A"}, "B8": {"name": "can9L12VL_G97A (antibody, V domains shown)", "VH": "B1 VH with A107L", "VL": "B1 VL with G97A"}, "B9": {"name": "can9L12VH_S53A (antibody, V domains shown)", "VH": "B1 VH with S53A, A107L", "VL": "B1 VL"}, "B10": {"name": "can9L12VH_Y114A (antibody, V domains shown)", "VH": "B1 VH with A107L, Y114A", "VL": "B1 VL"}, "B11": {"name": "can9L12VL_G33A (antibody, V domains shown)", "VH": "B1 VH with A107L", "VL": "B1 VL with G33A"}, "B12": {"name": "can9L12VH_S31A (antibody, V domains shown)", "VH": "B1 VH with S31A, A107L", "VL": "B1 VL"}, "B13": {"name": "can9L12VL_G51A (antibody, V domains shown)", "VH": "B1 VH with A107L", "VL": "B1 VL with G51A"}, "B14": {"name": "can9L12VH_Q106A (antibody, V domains shown)", "VH": "B1 VH with Q106A, A107L", "VL": "B1 VL"}, "B15": {"name": "can9L12VH_S57A (antibody, V domains shown)", "VH": "B1 VH with S57A, A107L", "VL": "B1 VL"}, "B16": {"name": "can9L12VH_V108A (antibody, V domains shown)", "VH": "B1 VH with A107L, V108A", "VL": "B1 VL"}, "B17": {"name": "can9L12VL_H99A (antibody, V domains shown)", "VH": "B1 VH with A107L", "VL": "B1 VL with H99A"}, "B18": {"name": "can9L12VH_P110A (antibody, V domains shown)", "VH": "B1 VH with A107L, P110A", "VL": "B1 VL"}, "B19": {"name": "can9L12VH_V101A (antibody, V domains shown)", "VH": "B1 VH with V101A, A107L", "VL": "B1 VL"}, "B20": {"name": "can9L12VH_N52A (antibody, V domains shown)", "VH": "B1 VH with N52A, A107L", "VL": "B1 VL"}, "B21": {"name": "can9L12VH_W104A (antibody, V domains shown)", "VH": "B1 VH with W104A, A107L", "VL": "B1 VL"}, "B22": {"name": "can9L12VH_T28A (antibody, V domains shown)", "VH": "B1 VH with T28A, A107L", "VL": "B1 VL"}, "B23": {"name": "can9L12VL_G30A (antibody, V domains shown)", "VH": "B1 VH with A107L", "VL": "B1 VL with G30A"}, "B24": {"name": "can9L12VL_D93A (antibody, V domains shown)", "VH": "B1 VH with A107L", "VL": "B1 VL with D93A"}},
  "note": "Residue numbers refer to the chain shown, from its start.",
  "data": [
    {"target": "T1, canine NGF (canine, UniProt Q29074 110-229 (pig entry), limits assumed)", "T1 construct": "The protein was secreted from CHO cells and purified; also called cNGF; canine β-NGF", "T1 chain": "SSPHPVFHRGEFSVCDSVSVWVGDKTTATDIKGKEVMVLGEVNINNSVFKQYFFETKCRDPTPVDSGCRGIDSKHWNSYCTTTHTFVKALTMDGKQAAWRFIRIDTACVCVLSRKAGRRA", "experiment": "SPR (Biacore T200), 100 nM mAb on NGF chip, similarity to parent mAb", "text": "(§1) The region of an antibody responsible for antigen recognition represents the paratope. A paratope is created by a combination of amino acids in the complementarity determining regions (CDRs) of both the heavy and light chain variable regions. The binding between antibody and antigen is often mediated by side chains of CDR residues with side chains or carbohydrate moieties of the antigen. To help define critical side chains involved in antibody recognition alanine scanning mutagenesis was performed on each CDR residue in both the heavy and light chain, the technique as described by Cunningham and Wells (1989) Science, Vol. 244, Issue 4908, pp. 1081-1085. These mutants were then individually tested for the ability to NGF using the Biacore. […] Values were then compared to the wild type antibodies and are represented in the tables as a percent of wild type binding. The data presented in Tables 4 and 5 below are shown as a “percent similarity score” compared to wild type.\n(§2) The mean response unit of four replicates of the parent mAb+/−3 standard deviations was used to generate parameters to define a threshold of response units comprising both the on- and off-rates antibody binding. The percentage of data points for each mutant fell within this threshold was then used to define a “% similarity score”. […] Results from substitution of alanine at each CDR position", "units": {"Percent Similarity Score (KD on cN)": "%"}, "values": [
      {"binder": "B1", "Percent Similarity Score (KD on cN)": 5.45},
      {"binder": "B2", "Percent Similarity Score (KD on cN)": 94.7},
      {"binder": "B3", "Percent Similarity Score (KD on cN)": 76.2},
      {"binder": "B4", "Percent Similarity Score (KD on cN)": 100},
      {"binder": "B5", "Percent Similarity Score (KD on cN)": 96.8},
      {"binder": "B6", "Percent Similarity Score (KD on cN)": 7.2},
      {"binder": "B7", "Percent Similarity Score (KD on cN)": 34.2},
      {"binder": "B8", "Percent Similarity Score (KD on cN)": 98.9},
      {"binder": "B9", "Percent Similarity Score (KD on cN)": 100},
      {"binder": "B10", "Percent Similarity Score (KD on cN)": 100},
      {"binder": "B11", "Percent Similarity Score (KD on cN)": 7.5},
      {"binder": "B12", "Percent Similarity Score (KD on cN)": 100},
      {"binder": "B13", "Percent Similarity Score (KD on cN)": 100},
      {"binder": "B14", "Percent Similarity Score (KD on cN)": 100},
      {"binder": "B15", "Percent Similarity Score (KD on cN)": 89.9},
      {"binder": "B16", "Percent Similarity Score (KD on cN)": 93.2},
      {"binder": "B17", "Percent Similarity Score (KD on cN)": 100},
      {"binder": "B18", "Percent Similarity Score (KD on cN)": 6.48},
      {"binder": "B19", "Percent Similarity Score (KD on cN)": 13.6},
      {"binder": "B20", "Percent Similarity Score (KD on cN)": 85.8},
      {"binder": "B21", "Percent Similarity Score (KD on cN)": 19.2},
      {"binder": "B22", "Percent Similarity Score (KD on cN)": 100},
      {"binder": "B23", "Percent Similarity Score (KD on cN)": 53.9},
      {"binder": "B24", "Percent Similarity Score (KD on cN)": 11}
    ]},
    {"target": "T2, rat NGF (rat, UniProt P25427 122-241)", "T2 construct": "also called rN", "T2 sequence (P25427 122-241 limits assumed)": "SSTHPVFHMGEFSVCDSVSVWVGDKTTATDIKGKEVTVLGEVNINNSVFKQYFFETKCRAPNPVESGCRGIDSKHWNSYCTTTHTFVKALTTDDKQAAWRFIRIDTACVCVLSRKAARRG", "experiment": "SPR (Biacore T200), 100 nM mAb on NGF chip, similarity to parent mAb", "text": "as §1, §2", "units": {"Percent Similarity Score (KD on rN)": "%"}, "values": [
      {"binder": "B1", "Percent Similarity Score (KD on rN)": 2},
      {"binder": "B2", "Percent Similarity Score (KD on rN)": 99.9},
      {"binder": "B3", "Percent Similarity Score (KD on rN)": 51.6},
      {"binder": "B4", "Percent Similarity Score (KD on rN)": 99.9},
      {"binder": "B5", "Percent Similarity Score (KD on rN)": 96},
      {"binder": "B6", "Percent Similarity Score (KD on rN)": 2.3},
      {"binder": "B7", "Percent Similarity Score (KD on rN)": 11.7},
      {"binder": "B8", "Percent Similarity Score (KD on rN)": 35.9},
      {"binder": "B9", "Percent Similarity Score (KD on rN)": 99.9},
      {"binder": "B10", "Percent Similarity Score (KD on rN)": 99.2},
      {"binder": "B11", "Percent Similarity Score (KD on rN)": 2.9},
      {"binder": "B12", "Percent Similarity Score (KD on rN)": 100},
      {"binder": "B13", "Percent Similarity Score (KD on rN)": 99.9},
      {"binder": "B14", "Percent Similarity Score (KD on rN)": 99.9},
      {"binder": "B15", "Percent Similarity Score (KD on rN)": 100},
      {"binder": "B16", "Percent Similarity Score (KD on rN)": 62},
      {"binder": "B17", "Percent Similarity Score (KD on rN)": 43.7},
      {"binder": "B18", "Percent Similarity Score (KD on rN)": 2.6},
      {"binder": "B19", "Percent Similarity Score (KD on rN)": 4.27},
      {"binder": "B20", "Percent Similarity Score (KD on rN)": 19.7},
      {"binder": "B21", "Percent Similarity Score (KD on rN)": 8.2},
      {"binder": "B22", "Percent Similarity Score (KD on rN)": 100},
      {"binder": "B23", "Percent Similarity Score (KD on rN)": 13.8},
      {"binder": "B24", "Percent Similarity Score (KD on rN)": 3.7}
    ]},
    {"target": "T3, human NGF (human, UniProt P01138 122-241)", "T3 construct": "also called human Nerve Growth Factor; hN", "T3 chain": "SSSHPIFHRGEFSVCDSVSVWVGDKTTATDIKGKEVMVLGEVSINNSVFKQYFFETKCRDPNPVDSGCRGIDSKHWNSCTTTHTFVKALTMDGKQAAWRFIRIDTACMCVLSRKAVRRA", "experiment": "SPR (Biacore T200), 100 nM mAb on NGF chip, similarity to parent mAb", "text": "as §1, §2", "units": {"Percent Similarity Score (KD on hN)": "%"}, "values": [
      {"binder": "B1", "Percent Similarity Score (KD on hN)": 1.82},
      {"binder": "B2", "Percent Similarity Score (KD on hN)": 31.2},
      {"binder": "B3", "Percent Similarity Score (KD on hN)": 42.1},
      {"binder": "B4", "Percent Similarity Score (KD on hN)": 100},
      {"binder": "B5", "Percent Similarity Score (KD on hN)": 40.5},
      {"binder": "B6", "Percent Similarity Score (KD on hN)": 2.7},
      {"binder": "B7", "Percent Similarity Score (KD on hN)": 10},
      {"binder": "B8", "Percent Similarity Score (KD on hN)": 43.3},
      {"binder": "B9", "Percent Similarity Score (KD on hN)": 100},
      {"binder": "B10", "Percent Similarity Score (KD on hN)": 99.9},
      {"binder": "B11", "Percent Similarity Score (KD on hN)": 2.3},
      {"binder": "B12", "Percent Similarity Score (KD on hN)": 99.9},
      {"binder": "B13", "Percent Similarity Score (KD on hN)": 100},
      {"binder": "B14", "Percent Similarity Score (KD on hN)": 100},
      {"binder": "B15", "Percent Similarity Score (KD on hN)": 33.4},
      {"binder": "B16", "Percent Similarity Score (KD on hN)": 56.3},
      {"binder": "B17", "Percent Similarity Score (KD on hN)": 56.9},
      {"binder": "B18", "Percent Similarity Score (KD on hN)": 2.1},
      {"binder": "B19", "Percent Similarity Score (KD on hN)": 5.29},
      {"binder": "B20", "Percent Similarity Score (KD on hN)": 38.2},
      {"binder": "B21", "Percent Similarity Score (KD on hN)": 5.2},
      {"binder": "B22", "Percent Similarity Score (KD on hN)": 96.6},
      {"binder": "B23", "Percent Similarity Score (KD on hN)": 16.2},
      {"binder": "B24", "Percent Similarity Score (KD on hN)": 3.3}
    ]}
  ]
}
